The target of this assay is full-length KIT(T417I,Δ418-419) (kinase-inactive K623A) (human). Kind of assay: cryo-EM structure.

1 substance from paper doi:10.1101/2022.09.08.506998 can be followed below.

Turning to “full-length KIT(T417I,Δ418-419) (kinase-inactive K623A) (receptor)”, the stoichiometry N is 2.
